Values of other authors in PMC3121775.

Target: Harakiri BH3 peptide BH3 (Homo sapiens) (UniProt O00198)
Assay: fluorescence

Bcl-xL, sequence (Q07817 whole entry): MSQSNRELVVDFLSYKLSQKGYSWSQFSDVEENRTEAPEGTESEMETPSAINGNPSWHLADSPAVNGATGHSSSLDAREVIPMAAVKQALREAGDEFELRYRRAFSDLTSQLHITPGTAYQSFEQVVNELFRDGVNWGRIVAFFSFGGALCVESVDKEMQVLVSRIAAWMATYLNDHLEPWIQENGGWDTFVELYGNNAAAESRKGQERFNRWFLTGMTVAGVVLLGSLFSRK

Kd: 92 nM
Substance: Bcl-xL (from UniProt Q07817)
